Measurements taken from patent US20230121197A1, “ANTIBODIES SPECIFICALLY BINDING THE CARBOXYMETHYLATED CATALYTIC SUBUNIT OF PROTEIN PHOSPHATASE 2A” (Medizinische Universität Wien, priority 2020, published 2023).

T1: PP4c C-terminal peptide meL307, ac-PSKKPVADYFL-CH3 (α-carboxymethylated) (human, SMILES …)
T1 construct: also called mePP4c; PP4 Me
T1 peptide: Ac-PSKKPVADYFL-OMe

B1: 7C10-C5 monoclonal antibody (antibody, V domains shown)
VH: DVQLQESGPGLVKPSQSLSLTCSVTGYSITSGYYWNWIRQFPGNKLEWMGYISYDGSNNYNPSLKNRISITRDTSKNQFFLKLNSVTTEDTATYYCAGRFAYWGQGTLVTVSA
VL: DVLMTQTPLSLPVSLGDQASISCRSSQSIVHSNGNTYLEWYLQKPGQSPKLLIYKVSNRFSGVPDRFSGSGSGTDFTLKINRVEAEDLGVYYCFQGSHVPWTFGGGTKLEIK
notes: Used as hybridoma culture supernatant (ELISA, Western blot, IHC) or at 50 µg/mL (SPR); also called 7C10 X63; clone 7C10-C5
B2: 7C10-C5: α-carboxymethylation specific mouse monoclonal IgG1 antibody from single clone hybridoma 7C10-C5 (DSM ACC3350) (antibody)
heavy: MYRMQLLSCIALSLALVTNSDVQLQESGPGLVKPSQSLSLTCSVTGYSITSGYYWNWIRQFPGNKLEWMGYISYDGSNNYNPSLKNRISITRDTSKNQFFLKLNSVTTEDTATYYCAGRFAYWGQGTLVTVSAAKTTAPSVYPLAPVCGDTTGSSVTLGCLVKGYFPEPVTLTWNSGSLSSGVHTFPAVLQSDLYTLSSSVTVTSSTWPSQSITCNVAHPASSTKVDKKIEPRGPTIKPCPPCKCPAPNLLGGPSVFIFPPKIKDVLMISLSPIVTCVVVDVSEDDPDVQISWFVNNVEVHTAQTQTHREDYNSTLRVVSALPIQHQDWMSGKEFKCKVNNKDLPAPIERTISKPKGSVRAPQVYVLPPPEEEMTKKQVTLTCMVTDFMPEDIYVEWTNNGKTELNYKNTEPVLDSDGSYFMYSKLRVEKKNWVERNSYSCSVVHEGLHNHHTTKSFSRTPGK
light: MDMRVPAQLLGLLLLWLSGARCDVLMTQTPLSLPVSLGDQASISCRSSQSIVHSNGNTYLEWYLQKPGQSPKLLIYKVSNRFSGVPDRFSGSGSGTDFTLKINRVEAEDLGVYYCFQGSHVPWTFGGGTKLEIKADAAPTVSIFPPSSEQLTSGGASVVCFLNNFYPKDINVKWKIDGSERQNGVLNSWTDQDSKDSTYSMSSTLTLTKDEYERHNSYTCEATHKTSTSPIVKSFNRNEC
modifications: Amino acid sequence of the recombinant 7C10-C5 heavy chain; Amino acid sequence of the recombinant 7C10-C5 light chain

Tests used:
[1] = target: PP2Ac C-terminal peptide pY307-meL309, ac-HVTRRTPDpYFL-CH3 (human); experiment: ELISA, 4-fold dilution series of coated peptide, hybridoma supernatant 1:50, normalized
[2] = target: T1, PP4c C-terminal peptide meL307, …; experiment: SPR (Biacore T200), antibody captured, peptide 50-800 nM as analyte, steady state analysis, 25 °C; SPR steady state; antibody captured at 50 µg/ml, PP4 Me peptide 50-800 nM as analyte
Procedure: The differential affinity of anti-carboxymethylated PP2Ac antibodies, 7C10-C5 and 2A10, to carboxymethylated PP2A catalytic subunit versus noncarboxymethylated PP2A catalytic subunit was determined by surface plasmon resonance (SPR) on a Biacore T200 (GE Healthcare) at the Core Facility Biomolecular & Cellular Analysis (University of Natural Resources and Life Sciences Vienna BOKU). The affinity of 7C10-C5 for carboxymethylated and noncarboxymethylated catalytic subunit of PP4 (PP4c), a PP2A-related phosphatase, was also determined.
Series S Sensor Chip CM5 (GE Healthcare, 10296958) Flow cells (e.g. Flow cells 3 and 4 for the data shown in Table 5 and FIG. 32) were coated with 30 μg/mL anti-mouse IgG antibody (in immobilization buffer) using the mouse antibody capture kit (GE Healthcare, BR-1008-38, Lot 10294578) via amine coupling according to the manufacturer's protocol (i.e. https://www.cytivalifesciences. com/en/us/shop/protein-analysis/spr-lab el-free-analysis/capture-reagents/mouse-antibody-capture-kit-p-05986). The immobilisation levels obtained were 11620.2 RU (Flow cell 1), 10836.5 RU (Flow cell 2), 11605.9 RU (Flow cell 3) and 11333.9 RU (Flow cell 4), and thus were within the specifications. […]
SPR experiments were performed with the BiacoreT200 instrument (Cytiva). […] The sensorgrams obtained were analyzed with BiacoreT200 Evaluation Software (version 3.1).

PP2Ac = target: T2, PP2Ac (Homo sapiens, UniProt P67775); experiment: Western blot of human cell lysates (HAP1, HEK293; NaOH treatment, Lcmt-1-KO); assay type: binding
T2 construct: the carboxy-terminal methyl group was chemically removed from cellular PP2Ac; endogenous in cells; host or cells: HAP1 wild type, HAP1 Lcmt-1-KO, HEK293Trex / HEK293T
T2 sequence (P67775 whole entry): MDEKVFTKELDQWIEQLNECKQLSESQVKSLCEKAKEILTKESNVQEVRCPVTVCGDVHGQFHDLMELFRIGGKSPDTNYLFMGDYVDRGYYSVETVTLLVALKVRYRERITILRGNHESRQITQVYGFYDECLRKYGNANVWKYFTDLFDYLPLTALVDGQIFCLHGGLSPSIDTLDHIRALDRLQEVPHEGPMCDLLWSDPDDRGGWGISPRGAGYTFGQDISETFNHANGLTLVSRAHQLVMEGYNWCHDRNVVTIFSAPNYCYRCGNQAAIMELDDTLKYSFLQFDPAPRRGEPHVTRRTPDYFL
Procedure: NIH3T3 mouse fibroblasts and human embryonic kidney cells (HEK293Trex) were grown in DMEM+10% FCS+2 mM L-glutamine (Sigma, G2150)+100 units/ml Penicillin/0.1 mg/ml Streptomycin at 37° C. in a 7.5% CO2 atmosphere. HAP1 wild type and HAP1 Lcmt-1-KO cells (Leucine carboxyl methyltransferase 1 deleted by CRISPR/Cas9; Horizon Discovery, #C631 and #HZGHC004373c001) were grown in Iscove's Modified Dulbecco's Medium (IMDM, Thermo Fischer Scientific, Life Technologies #12440053) supplemented with 10% (v/v) Fetal Calf Serum (FCS) (Sigma #F7524, lot 104M3333), GlutaMAX™ (Thermo Fischer Scientific, Life Technologies #35050-38, lot 1895829), and Penicillin-Streptomycin solution (Sigma, #P4333, lot 125M4781V) in a 5% CO2 atmosphere. Of note, HAP1 is a near-haploid human cell line that was derived from the chronic myelogenous leukemia (CML) cell line KBM-7 (Carette (2011), Nature 477(7364):340-3). For cell lysis, exponentially growing cells were washed once with ice-cold PBS, once with ice-cold IP-Wash buffer (20 mmol/l Tris pH 8.0, 135 mmol/l NaCl, 10% glycerol) and lysed on the petri-dish in ice-cold IP-Lyse buffer (18 mmol/l Tris pH 8.0, 122 mmol/l NaCl, 9% glycerol, 1% w/v NP-40) for 20 min at 4° C. rocking. Lysed cells were transferred to Eppendorf 1.5 ml tubes and centrifuged for 15 min at 14,000 rpm at 4° C. in a Beckman & Coulter Microfuge 18 centrifuge. The protein concentration was determined with the Protein Assay Dye Reagent (Biorad, 500-0006) and measurement of absorbance at 595 nm in a Hitachi U-2000 spectrophotometer. […]
To test these antibodies in the western blot analysis with methylated and non-methylated full-length PP2Ac the methyl group was chemically removed from cellular PP2Ac by treating lysates of the human cell line, HAP1, with NaOH, as described in Example 2. […] In agreement with the results of the NaOH experiments, […] of PP2Ac were detected in HAP1 cells that lack the PP2A methyltransferase LCMT-1 indicating the preference of these antibodies for non-methylated PP2Ac (FIG. 22). […]

| Molecule | EC50 (read off the curve) [1] | Kd [2] | detection of PP2Ac in HAP1 cells that lack LCMT-1 (Lcmt-1-KO) (PP2Ac) | detection of PP2Ac in untreated versus NaOH treated cell lysates (PP2Ac; HAP1, HEK293) |
| --- | --- | --- | --- | --- |
| B1 | 0.3 µg/mL | 132 nM | – | – |
| B2 | – | – | no carboxymethylated PP2Ac specific signals were detected | only detected methylated PP2Ac in the untreated cell lysates but not in the NaOH treated lysates |
